Data published in the supplement of paper PMC9170038.

Tested on: MS2 coat protein
Test: apparent KD of MS2 coat protein; designed switch direction (-1 OFF switch, 1 ON switch): -1; higher = weaker reporter binding
In short: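 Stalled E. coli RNA polymerase transcribed designed RNA switches on Illumina chips, which were then titrated with SNAP-549-labelled MS2 coat protein, doubling from 0.7 or 1.5 nM to 3 µM. Steps lasted from 0.8–1.5 h at the lowest concentration to 10–20 min at the highest. The apparent KD is each design's median over clusters of curve-fitted normalised fluorescence.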

[1] = input ligand: microRNA oligo, concentration not stated
[2] = Eterna round: R95, input ligand: microRNA oligo, concentration not stated
[3] = Eterna round: R95, input ligand: FMN 200 uM
[4] = Eterna round: R95, input ligand: none

Row | Sequence | apparent KD of MS2 coat protein (input ligand: FMN 200 uM) [nM] | apparent KD of MS2 coat protein (input ligand: none) [nM] | apparent KD of MS2 coat protein [2] [nM] | further results
1 | GGAUCGAGUGUGAGGAUAUGCUGGUCCUUGGAUCAGCAGAAGGCACAUGAGGAUCACCCAUGUGAAGACGAUCC [Eli bmx4 4.55] (Eterna round: R97, puzzle: Brourd's mod of Exclusion 4) | 340 | 40.1 |  | 
2 | GGAUCGAGUGUGAGGAUAUGCUGGUCCUUGGAUCAGCAGAAGGCACAUGAGGAUCACCCAUGUGAAGACGAUCC [Mat - Exclusion 4 - JL Mod - D73] (Eterna round: R96, puzzle: Brourd's mod of Exclusion 4) | 230 | 28.7 |  | apparent KD of MS2 coat protein [1]: 23.1 nM
3 | GGAUCGAGUGUGAGGAUAUGCUGGUCCUUGGAUCAGCAGAAGGCACAUGAGGAUCACCCAUGUGAAGACGAUCC [Mat - Exclusion 4 - JL Mod - D73] (puzzle: Brourd's mod of Exclusion 4) |  |  | 21.2 | 
4 | GGAUCGUAUGUCAGGAUAUGCCACUGGAUACAGUGGUAGAAGGGACAUGAGGAUCACCCAUGUCCUACCGAUCC [Fiskers BMX 4 - 50] (puzzle: Brourd's mod of Exclusion 4) |  |  | 12.4 | 
5 | GGAUUACAUGAGGAUCACCCAUGUCAGGAUAUGAAAGCAUAUGCCGAAAGGCAUAUGCGCAGAAGGGACAAUAU [AK-MS2ROC-r4-exclusion1-3.0] (Eterna round: R97, puzzle: Exclusion 1) | 45.7 | 27.5 |  | 
6 | GGAUUUCCUGAGGAUAUUGCAUCACCCGAUUUAUAAGAAGGCAGAACAUGAGGAUCACCCAUGUGGGUCUCCAG [Bingo-Bango-24] (Eterna round: R97, puzzle: Exclusion 6) | 22.9 | 17.9 |  | 
7 | GGCAAUAACGAGGAUAUCGUAUCGGAAACGAUACGAGAAGGUGUAACAUGAGGAUCACCCAUGUUCCUCAAGCC [Fiskers Ex 6 - 8] (puzzle: Exclusion 6) |  |  | 33.9 | 
8 | GGCACACAUGAGGAUCACCCAUGUGAGGAUAUGAGGCGAUCGUCGAUAGACGAUAGCCUUAGAAGGCACAUGCC [Mat - Exclusion 1 - Eli Mod - D11] (Eterna round: R97, puzzle: Exclusion 1) | 45.2 | 21.2 |  | 
9 | GGCACCGUAGGAUAUUGUGGUGCAGACAUGAGGAUCACCCAUGUUGAUCCGGGACUGCAGCGAGAAGGACGGGAAA [Eternabot (Original) Solution 2] (Eterna round: R97, puzzle: Exclusion 5) | 284 | 344 |  | 
10 | GGCAGACAUGAGGAUCACCCAUGUCAGGAUAUGGUGCGAUCGUCGAAAGACGAUAGCACCAGAAGGGACAUGCC [Eli x1 4.03] (Eterna round: R97, puzzle: Exclusion 1) | 30.5 | 19.1 |  | 
11 | GGCAGACAUGAGGAUCACCCAUGUCAGGAUAUGUGGCGAUCGUCGAAAGACGAUAGCCACAGAAGGGACAUGCC [Eli x1 4.20] (Eterna round: R97, puzzle: Exclusion 1) | 40.7 | 22.4 |  | 
12 | GGCAGGCUAGAGGAUAUGCAUUGGCUUGGCCAAGCAGAAGGCUAGACAUGAGGAUCACCCAUGUGUUCCUUGUG [jl-ex6-4.36 ViennaUCT mod] (Eterna round: R97, puzzle: Exclusion 6) | 83.5 | 93.6 |  | 
13 | GGCAGUCGAGGAUAUACGAUCGUGCUUCGGCACGUAAGAUCACAUGAGGAUCACCCAUGUAGAAGGCGACUGCC [Mod 2 - Jieux - Exclusion 2] (Eterna round: R97, puzzle: Exclusion 2) | 214 | 33.4 |  | 
14 | GGCAUGUAAGGAUAUGCCACCGAGUGCUUUGCGCUCGGUAAGCAGAAGGUACAUGAGGAUCACCCAUGUGAUAA [jl-ex4-4.55 ViennaUCT mod] (Eterna round: R97, puzzle: Exclusion 4) | 132 | 660 |  | 
15 | GGCCCACAUGAGGAUCACCCAUGUGAGGAUAUGUUAGUUUCGGCGAAAGCCGAAAUUAACAGAAGGCACAGGCC [JR_Exclusion1_Sub022] (puzzle: Exclusion 1) |  |  | 10.8 | 
16 | GGCCGUAAUAAGGAUAUCACUAGCUGCGGCUAGUGAGAAGGUAUUACAUGAGGAUCACCCAUGUGGUCAGGCCA [E6/4-B3] (Eterna round: R97, puzzle: Exclusion 6) | 1060 | 284 |  | 

Row | Sequence | apparent KD of MS2 coat protein (input ligand: FMN 200 uM) [nM] | apparent KD of MS2 coat protein (input ligand: none) [nM] | apparent KD of MS2 coat protein [2] [nM] | further results
17 | GGCCUACAUGAGGAUCACCCAUGUAAGGAUAUCAAGUCGGGCUCCAAGGAAGCCCAUAUGAGAAGGUAUUUGGG [Eternabot (L2) Solution 32] (Eterna round: R97, puzzle: Exclusion 1) | 116 | 25.3 |  | 
18 | GGCCUUCCGCAAGCUUUUUACAUGAGGAUCACCCAUGUGAUUUUUAGUCUUAUGCCCGGGCCCGUGUGGGCCCGGGC [-34.8, -55.6, A 14%] (Eterna round: R97, puzzle: Sensor, turn-off variant 1) | 23.4 | 23.1 |  | 
19 | GGCUCGCCUCACAUGAGGAUCACCCAUGUACAAAACAAGAGGCAGGAUAUGGGCCGCGCAGCGGGCCAGAAGGGCCGCAUGGGU [Edsodidige] (Eterna round: R96, puzzle: Exclusion NG 3) | 62.9 | 113 |  | apparent KD of MS2 coat protein [1]: 67.7 nM
20 | GGGCCCGGUGUGAGGAUAUUUCGAGUGAAAGCUUGAGAGAAGGCACAUGAGGAUCACCCAUGUAAGCCGGGCCC [-36.4, -34.3 kcal, A 26%, 1bis-0] (Eterna round: R97, puzzle: Brourd's mod of Exclusion 4) | 15.1 | 17.8 |  | 
21 | GGGCUGUCAGGAUAUACAUGAGGAUCACCCAUGUCGAGCUGUGAUAGGGCAAGAGUAGGUAGAAGGGACGAGAG [JR_Exclu3_Sub042] (puzzle: Exclusion 3) |  |  | 30.5 | 
22 | GGGUAGUGAGGAUAUCGUUGUUAGGAGGAGUAGGUAGGAGGCGAGAAGGCACAUGAGGAUCACCCAUGUAUGAG [JR_Exclu4_Sub065] (puzzle: Exclusion 4) |  |  | 25.5 | 
23 | GGGUGACAUGAGGAUCACCCAUGUCAGGAUAUGAUUCUGCUUGCGAAAGCGAGUAGAAUCAGAAGGGACAACCC (Eterna round: R97, puzzle: Exclusion 1) | 359 | 57 |  | 
24 | GGUACCUCUGUUAGGAUAUUGUUAGUGUGAAGCGACGAGAAGGAACAUGAGGAUCACCCAUGUUGCAUCGUAAA [Eternabot (L2) Solution 54] (Eterna round: R97, puzzle: Brourd's mod of Exclusion 4) | 152 | 27.1 |  | 
25 | GGUACUAACACGAAAGUGUUAGUACUAUAAGUUUGUGUUACAUGAGGAUCACCCAUGUCCUCAUAAGCUCGUCUUGU [JL-sv3-2.20 mat747 mod] (puzzle: Sensor v3, turn-off variant 2) |  |  | 59.6 | apparent KD of MS2 coat protein [3]: 623 nM; apparent KD of MS2 coat protein [4]: 685 nM
26 | GGUACUAACACGAGAGUGUUAGUACAAUAAGCUUGUGUUACAUGAGGAUCACCCAUGUCCUCAUAAGCUCGUCUUAU [Mat - Sensor v3 - Turn-off var 2 - D57] (puzzle: Sensor v3, turn-off variant 2) |  |  | 30.8 | apparent KD of MS2 coat protein [3]: 107 nM; apparent KD of MS2 coat protein [4]: 124 nM
27 | GGUAGUUCAGAUCCACAUGAGGAUCACCCAUGUUAAAGGAUCUAGGAUAUCGGGACAUCGAUGCCCGAGAAGGAGACUUUAGCG [Eternabot solution 39] (Eterna round: R96, puzzle: Exclusion NG 3) | 173 | 101 |  | apparent KD of MS2 coat protein [1]: 100 nM
28 | GGUCAGAUGGUAGGAUAUCCAUAUUGAGUGACCCUUUCAUAACAUGAGGAUCACCCAUGUCGGUGGGAGAAGGGCCGUACGGCG [salish99_ExNG02_R04_015] (Eterna round: R96, puzzle: Exclusion NG 2) | 176 | 114 |  | apparent KD of MS2 coat protein [1]: 71.2 nM
29 | GGUCCACAUGAGGAUCACCCAUGUUAGGAUAUCUCGCCCGAGUCGUUAUGGGCCGGGCAGAGAAGGAAUGUGAA [Redion] (puzzle: Exclusion 1) |  |  | 17.9 | 
30 | GGUCCGCAUGUCAGGAUAUACAUAUGGAUCAUAGAGUAGAAGGGACUUGAGGAUCACCCAAGUAACAAAAGAAG [Tiantere] (Eterna round: R97, puzzle: Brourd's mod of Exclusion 4) | 60.1 | 21.3 |  | 
31 | GGUCCGUCAGUGAGGAUAUUGAGGAGGAGGAGGGACAAGAAGGCACAUGAGGAUCACCCAUGUAGGGACGGACG [Alacar 1st] (Eterna round: R97, puzzle: Brourd's mod of Exclusion 4) | 46.4 | 21.2 |  | 
32 | GGUCCUCUGGUGAGGAUAUCUACCCAGGCAGCUGGAGAGAAGGCACAUGAGGAUCACCCAUGUAGCAGAAAACC [Enremadi] (puzzle: Brourd's mod of Exclusion 4) |  |  | 9.56 | 
